This note sets out measurements from patent US20210163545A1.

Sequences and labels used below:
B1: Recombinant type immunoglobulin κ chain binding protein KBP0 (protein)
chain: KETPETPEEPKEEVTIKVNLIFADGKTQTATFKGTFEEATAEAYRYADLLAKVNGEYTADLEDGGYTINIKFAGKKETPETPEEPKEEVTIKVNLIFADGKTQTATFKGTFEEATAEAYRYADLLAKVNGEYTADLEDGGYTINIKFAGKKETPETPEEPKEEVTIKVNLIFADGKTQTATFKGTFEEATAEAYRYADLLAKVNGEYTADLEDGGYTINIKFAGKKETPETPEEPKEEVTIKVNLIFADGKTQTATFKGTFEEATAEAYRYADLLAKVNGEYTADLEDGGYTINIKFAGK
B2: Recombinant immunoglobulin κ chain binding protein KBP3 (protein)
chain: B1 chain with T35R, T110R, T185R, T260R
B3: Recombinant immunoglobulin κ chain binding protein KBP5 (protein)
chain: B1 chain with N54Q, N129Q, N204Q, N279Q
B4: Recombinant immunoglobulin κ chain binding protein KBP4 (protein)
chain: B1 chain with Y44F, Y119F, Y194F, Y269F
B5: Recombinant immunoglobulin κ chain binding protein KBP1 (protein)
chain: B1 chain with K17R, K92R, K167R, K242R
B6: Recombinant immunoglobulin κ chain binding protein KBP2 (protein)
chain: B1 chain with K26R, K101R, K176R, K251R
B7: Recombinant immunoglobulin κ chain binding protein KBP9 (protein, part only; not given: further domain copies and linkers, part only)
chain, part: KETETEEPKEEVTIKVNLIFADGKTQTATFKGTFEEATAEAYRYADLLAKVNGEYTADLEDGGYTINIKFAGK
B8: Recombinant immunoglobulin κ chain binding protein KBP6 (protein, part only; not given: further domain copies and linkers, part only)
chain, part: KETPETPEEPKEEVTIKVNLIFADGKTQTATFKGTFEEATAEAYRYADLLAKVNAGEYTADLEDGGYTINIKFAGK
B9: Recombinant immunoglobulin κ chain binding protein KBP7 (protein, part only; not given: further domain copies and linkers, part only)
chain, part: B8 chain, part with A55Y
B10: Recombinant immunoglobulin κ chain binding protein KBP8 (protein, part only; not given: further domain copies and linkers, part only)
chain, part: KETETPEEPKEEVTIKVNLIFADGKTQTATFKGTFEEATAEAYRYADLLAKVNGEYTADLEDGGYTINIKFAGK

Positions count from the first letter of the chain named.

One assay has as its target Fab. The experiment in a line: static binding capacity for Fab after 0.1 M NaOH for 24 h, relative to SBC of the same particles without alkali treatment.
Consider B1, for which the SBC retention ratio (%) after alkali treatment came out at 39%.
On the same count and under the same terms, as for B2, the figure is 48%.
For B3, the SBC retention ratio (%) after alkali treatment turned out to be 51%.
Same read-out and setting: as for B4, the figure is 49%; as for B5, 46%; as for B6, 46%.
The same measure, in the same setting: as for B7, the figure is 42%.
Regarding B8, the SBC retention ratio (%) after alkali treatment was determined as 58%.
Still for that read-out and setting: as for B9, the figure is 73%.
For the molecule B10, the SBC retention ratio (%) after alkali treatment was 45%.

The next assay deals with Fab. The experiment in a line: static binding capacity: Fab incubated with ligand-immobilized porous particles, eluted at pH 2.5, absorbance.
For the molecule B1, the SBC without alkali treatment (mg/mL-particles) was 60.
The same measure, in the same setting: as for B2, the figure is 58; as for B3, 63; as for B4, 47.
In the case of B5, the SBC without alkali treatment (mg/mL-particles) worked out at 56.
The same measure, in the same setting: for B6 the value was 59; for B7, 60; for B8, 61.
With B9, the SBC without alkali treatment (mg/mL-particles) came out at 64.
The molecule B10 returned an SBC without alkali treatment (mg/mL-particles) of 60.
